# Reference: patent US20110150895A1 (SAMSUNG ELECTRONICS, published 2011)
# T1: recombinant hAng-2 (a recombinant human angiopoietin-2 protein with an attached His tag; R&D Systems) (human, UniProt O15123 19-496)
# T1 construct: Bought reagent; not shown: His tag
# T1 sequence (looked up): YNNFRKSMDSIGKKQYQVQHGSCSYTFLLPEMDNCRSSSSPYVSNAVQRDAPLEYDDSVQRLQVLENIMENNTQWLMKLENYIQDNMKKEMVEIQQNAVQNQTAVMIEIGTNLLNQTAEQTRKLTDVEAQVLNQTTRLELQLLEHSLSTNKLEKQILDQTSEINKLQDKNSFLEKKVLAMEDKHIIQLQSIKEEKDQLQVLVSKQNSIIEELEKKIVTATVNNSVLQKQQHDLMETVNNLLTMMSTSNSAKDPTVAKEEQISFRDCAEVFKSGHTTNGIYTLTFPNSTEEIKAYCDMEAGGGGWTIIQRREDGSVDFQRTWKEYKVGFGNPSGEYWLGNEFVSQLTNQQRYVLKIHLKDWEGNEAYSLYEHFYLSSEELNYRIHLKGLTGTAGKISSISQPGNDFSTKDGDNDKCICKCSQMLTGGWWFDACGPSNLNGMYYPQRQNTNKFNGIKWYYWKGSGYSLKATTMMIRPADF
# Assays:
# [1] = target: T1, recombinant hAng-2 (a recombinant human …); experiment: competitive ELISA: inhibition of 1 nM hAng-2 binding to coated hTie2-Fc
# Procedure: A 96-well MaxiSorp™ flat-bottom plate (Nunc) was coated with recombinant human Tie2-Fc (hTie2-Fc) (R&D Systems, Inc.) dissolved in DMEM culture containing 50 μg/ml bovine serum albumin (BSA). The hTie-2Fc is a chimeric protein including the water-soluble extracellular region of human Tie-2 and the Fc fragment of human IgG₁. The concentration of hTie2-Fc immobilized was equivalent to 75% of its maximum binding concentration with 1 nM of recombinant hAng-2 (a recombinant human angiopoietin-2 protein with an attached His tag; R&D Systems). The plate was washed with Phosphate Buffered Saline (PBS) containing 0.1% TWEEN-20 five times and blocked with PBS containing 5% BSA at room temperature for two hours. To perform an ELISA experiment for determining whether binding between angiopoietin-2 and Tie-2 was neutralized, each of the monoclonal antibodies SAIT-Ang-2-5 and SAIT-Ang-2-6 prepared according to Example 1 were serially diluted from 100 nM by one-fourth each time with PBS containing 1% BSA and 1 nM hAng-2 and adjusted to a concentration of 6.1 pM. […] The OD₄₅₀ value was read on a plate reader (Molecular Devices). […] Based on the results, each of the monoclonal antibodies SAIT-Ang-2-5 and SAIT-Ang-2-6 of Example 1 was determined to be capable of neutralizing binding between angiopoietin-2 and Tie-2 (refer to Table 1).
# [2] = target: T1, recombinant hAng-2 (a recombinant human …); experiment: SPR (BIAcore T100), hAng-2 amine-coupled on CM5 chip, antibody as analyte
# Procedure: The affinity of each of the monoclonal antibodies SAIT-Ang-2-5 and SAIT-Ang-2-6 of Example 1 to angiopoietin-2 was measured using a surface plasmon resonance (SPR) device (BIAcore T100, GE Healthcare). 20 μg/ml recombinant hAng-2 (R&D Systems) was immobilized on a CM5 chip (GE Healthcare) using a pH 4.5 acetate solution and an amine coupling kit (GE Healthcare). Each of the monoclonal antibodies SAIT-Ang-2-5 and SAIT-Ang-2-6 of Example 1 was diluted to eight different concentrations down to 0.78125 nM by serially diluting to ½ each time starting from 100 nM. Then, the antigen/antibody affinity was measured by binding each antibody with the antigen immobilized on the CM5 chip and dissociating the antigen from the antibody using a pH2.2 glycine-HCl solution. […] From the results, the affinity of each monoclonal antibody SAIT-Ang-2-5 and SAIT-Ang-2-6 of Example 1 to angiopoietin-2 was determined.
Binder,IC50 [1],Kd [2],koff [2],kon [2]
"Monoclonal antibody SAIT-Ang-2-6 (antibody, V domains shown, also called antibody of hybridoma KCLRF-BP-00222) VH: QVQLQQPGSELVRPGTSVKLSCKASGYTFTNYLMHWVKQRPGQGLEWIGNIYPGSGATNYDEKFKSKATLTVDISSSTAYMQLISLTSEDSAVYYCTRDDYDGSWFAYWGQGTLVTVSA VL: DIVMTQSPSSLSVSAGEKVTMTCKSSQSLLISGNQKNFLAWYQQKPGQPPKLLIYGASTRDSGVPDRFTGSGSGTDFTLTISSVQAEDLAVYYCQNDHSYPLTFGTGTKLELK",1.86 nM,1.27 nM,0.00207 s⁻¹,1.64e+06 M⁻¹ s⁻¹
"Monoclonal antibody SAIT-Ang-2-5 (antibody, V domains shown, also called antibody of hybridoma KCLRF-BP-00221) VH: DVQLVESGGGLAQPGGSRKLSCAASGFTFSNFGMHWVRQAPEKGLDWVAYISSGSDTIYYADTVKGRFTISRDNPKNTLFLQMTSLRSEDTAMYYCARESTMITMGYVLDYWGQGTSVTVSS VL: DIQMTQSPASQSASLGESVTITCLASQTIGTWLAWYQQKPGKSPQLLIYAATSLADGVPSRFSGSGSGTKFSLKISSLQAEDFVSYYCQQLYSIPLTIGAGTKLELK",0.764 nM,0.902 nM,0.00178 s⁻¹,1.97e+06 M⁻¹ s⁻¹
